These results are taken from article PMC12802937 (Nucleic Acids Research, 2026).

Holding throughout (conditions): both partners purified
In experiment [1] the target is T1, Bre1-LR (Bre1 residues 227–700, LBD and RING domains), 6× histidine tag (budding yeast, UniProt Q07457 227-700).
T1 construct: two Bre1 polypeptides form the dimeric coiled-coils of the LBD in the crystal structure; also called WT; source: E. coli BL21 Rosetta (DE3), purified (Ni-NTA, heparin, gel filtration)
T1 sequence (looked up): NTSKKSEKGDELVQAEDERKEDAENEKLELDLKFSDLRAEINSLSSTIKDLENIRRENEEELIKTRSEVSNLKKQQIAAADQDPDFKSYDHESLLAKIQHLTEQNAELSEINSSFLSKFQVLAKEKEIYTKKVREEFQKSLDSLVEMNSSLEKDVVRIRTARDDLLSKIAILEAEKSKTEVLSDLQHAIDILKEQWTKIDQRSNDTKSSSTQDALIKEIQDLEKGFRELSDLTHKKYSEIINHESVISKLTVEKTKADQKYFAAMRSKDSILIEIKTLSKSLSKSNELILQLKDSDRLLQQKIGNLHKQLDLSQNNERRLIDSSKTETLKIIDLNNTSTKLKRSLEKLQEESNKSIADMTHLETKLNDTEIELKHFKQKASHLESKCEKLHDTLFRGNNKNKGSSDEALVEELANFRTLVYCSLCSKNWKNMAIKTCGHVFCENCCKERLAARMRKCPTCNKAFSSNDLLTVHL
As to the kind of experiment: SPR; Lge1-CT immobilised on a CM5 chip, Bre1-LR flown over; Biacore 8K, 25°C, 20 mM HEPES (pH 7.5), 200 mM sodium chloride, 0.02% Tween 20. On the technique in general: Surface plasmon resonance follows binding to a sensor surface in real time, without labels.

Experiment [2] concerns the target T2, Bre1-LR E378K/E500K (budding yeast, UniProt Q07457 227-700, E378K | E500K).
T2 construct: source: E. coli BL21 Rosetta (DE3), purified (Ni-NTA, heparin, gel filtration)
T2 sequence (looked up): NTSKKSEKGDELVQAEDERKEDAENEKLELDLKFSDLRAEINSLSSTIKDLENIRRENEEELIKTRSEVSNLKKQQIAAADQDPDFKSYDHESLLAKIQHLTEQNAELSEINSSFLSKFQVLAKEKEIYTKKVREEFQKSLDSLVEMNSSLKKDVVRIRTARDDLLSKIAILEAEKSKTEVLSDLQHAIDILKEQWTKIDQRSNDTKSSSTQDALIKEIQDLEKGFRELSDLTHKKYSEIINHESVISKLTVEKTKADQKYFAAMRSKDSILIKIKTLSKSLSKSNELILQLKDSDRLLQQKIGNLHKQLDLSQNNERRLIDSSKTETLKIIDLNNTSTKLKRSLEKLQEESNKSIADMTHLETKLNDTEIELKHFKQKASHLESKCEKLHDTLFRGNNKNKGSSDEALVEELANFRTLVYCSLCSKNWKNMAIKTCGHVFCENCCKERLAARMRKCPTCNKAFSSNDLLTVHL
As to the kind of experiment: ITC; Lge1-CT (50–60 μM) injected into Bre1-LR (15 μM); 25°C, 20 mM TRIS (pH 7.5), 200 mM sodium chloride.

The target of experiment [3] is T3, Bre1-LR K534E (budding yeast, UniProt Q07457 227-700, K534E).
T3 construct: source: E. coli BL21 Rosetta (DE3), purified (Ni-NTA, heparin, gel filtration)
T3 sequence (looked up): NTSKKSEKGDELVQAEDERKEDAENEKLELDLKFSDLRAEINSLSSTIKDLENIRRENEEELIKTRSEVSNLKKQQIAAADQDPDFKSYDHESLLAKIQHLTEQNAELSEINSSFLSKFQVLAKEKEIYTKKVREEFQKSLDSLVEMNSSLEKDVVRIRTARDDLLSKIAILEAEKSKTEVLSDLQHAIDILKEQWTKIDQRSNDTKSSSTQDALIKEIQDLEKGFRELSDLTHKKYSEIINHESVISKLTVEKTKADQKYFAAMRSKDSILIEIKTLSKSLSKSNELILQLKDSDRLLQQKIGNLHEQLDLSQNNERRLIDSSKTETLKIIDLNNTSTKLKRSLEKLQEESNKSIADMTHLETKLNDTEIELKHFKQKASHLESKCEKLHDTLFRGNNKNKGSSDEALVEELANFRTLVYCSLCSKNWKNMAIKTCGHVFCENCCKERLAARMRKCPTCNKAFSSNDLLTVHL
The description is as above.

Experiment [4] addresses T4, Bre1-LR K379A (budding yeast, UniProt Q07457 227-700, K379A).
T4 construct: source: E. coli BL21 Rosetta (DE3), purified (Ni-NTA, heparin, gel filtration)
T4 sequence (looked up): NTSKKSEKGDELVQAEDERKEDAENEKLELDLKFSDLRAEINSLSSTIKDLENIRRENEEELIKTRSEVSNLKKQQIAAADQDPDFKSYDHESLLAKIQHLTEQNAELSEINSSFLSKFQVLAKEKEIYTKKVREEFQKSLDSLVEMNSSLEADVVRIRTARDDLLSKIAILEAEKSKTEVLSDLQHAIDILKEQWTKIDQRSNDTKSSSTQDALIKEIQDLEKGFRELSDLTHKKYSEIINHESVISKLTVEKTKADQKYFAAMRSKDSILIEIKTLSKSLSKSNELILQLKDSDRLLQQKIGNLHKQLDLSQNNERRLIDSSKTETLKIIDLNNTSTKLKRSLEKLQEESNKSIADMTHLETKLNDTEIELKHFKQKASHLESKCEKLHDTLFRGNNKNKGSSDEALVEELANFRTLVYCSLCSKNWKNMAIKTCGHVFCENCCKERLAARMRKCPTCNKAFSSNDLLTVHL
Described as above.

B1: Lge1-CT (Lge1 residues 261–332), intein-chitin binding domain (CBD) tag construct (domain or fragment, budding yeast, UniProt Q02796 261-332, looked up)
chain: KNVKKTNNTESECEKAREVFKESDSIDSALEELNLKINSNELELRLLNNQCDKHALNIQLTQEKLDSLLLMQ
notes: Lge1, budding yeast, residues 261-332; residues 268–331 resolved in the electron density; the intein-CBD tag is named on the protein in the pull-down; also called intein-CBD-fused Lge1-CT; intein-CBD-tagged Lge1-CT; source: E. coli BL21 Rosetta (DE3): cleared cell extract on chitin resin (pull-down); purified (chitin, heparin, gel filtration) for ITC and SPR; co-purified with Bre1-LR for the …
What is called Kd is the free concentration of one partner at which half of the binding sites on the other are occupied at equilibrium, for simple one-to-one binding. The low end stands for tighter binding, the high end for weaker binding. What is called stoichiometry N is a count of units in the complex or per binding partner. For the molecule B1, the Kd was found to be 17.5 nM in experiment [1], 98 ± 31.2 nM in experiment [2], 36.9 ± 14.5 nM in experiment [3] and 82.3 ± 20 nM in experiment [4]. The dH in experiment [2] was -40.7 ± 1.9 kcal/mol; in experiment [3], -33.9 ± 2.1 kcal/mol; in experiment [4] it was -44.1 ± 1.8 kcal/mol. Also, the “stoichiometry N” value in experiment [2] was 0.256 ± 0.007; in experiment [3] it was 0.469 ± 0.008; in experiment [4], 0.415 ± 0.007.
